Measured values as given in the supplement of paper PMC9170038.

System: MS2 coat protein
Assay: apparent KD of MS2 coat protein; designed switch direction (-1 OFF switch, 1 ON switch): 1; higher = weaker reporter binding
Procedure, shortened: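 Designed RNA switches with common flanks were transcribed on Illumina chips by stalled E. coli RNA polymerase and titrated with SNAP-549-labelled MS2 coat protein, from 0.7 or 1.5 nM doubling to 3 µM, in Tris-HCl pH 7.5 buffer with KCl, MgCl2, BSA, DTT, tRNA and Tween-20. Steps lasted 0.8–1.5 h (lowest) to 10–20 min (highest). Titrations ran without input, with 200 uM small-molecule ligand, or with an oligonucleotide input. Normalised cluster fluorescence was curve-fitted, and apparent KD is the per-design median over clusters.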

[1] = input ligand: microRNA oligo, concentration not stated

Sequence	apparent KD of MS2 coat protein (input ligand: FMN 200 uM) [nM]	apparent KD of MS2 coat protein [1] [nM]	apparent KD of MS2 coat protein (input ligand: none) [nM]	apparent KD of MS2 coat protein (Eterna round: R95, input ligand: FMN 200 uM) [nM]	apparent KD of MS2 coat protein (Eterna round: R95, input ligand: microRNA oligo, concentration not stated) [nM]	apparent KD of MS2 coat protein (Eterna round: R95, input ligand: none) [nM]
UGGCUCAGAGCAGGAUAUAUGUCUCGAGCUUCGGCUCGAGACAUGAGGAUCACCCAUGUAAUAACAUAGAAGGGCUCUGAGCCU [SSNG2/1-B3] (Eterna round: R96, puzzle: Same State NG 2)	15.8	42	53.3	–	–	–
UGGUACAUGGGAGGAUAUCCUCAGGAGACAUGAGGAUCACCCAUGUAAUAUAAGCCGAAAGGCAUGGAGAAGGCCCAUGUACCU [JL SSNG1 3.81] (Eterna round: R96, puzzle: Same State NG 2)	27.6	150	167	–	–	–
UGGUACAUGGGAGGAUAUCUCAUGGAGACAUGAGGAUCACCCAUGUAGAUCGACGGUAACGUCGGAGAGAAGGCCCAUGUACCU [MOD JL SSNG1 3.70] (Eterna round: R96, puzzle: Same State NG 2)	17.4	32.6	50	–	–	–
UGGUACAUGGGAGGAUAUCUCAUGGAGACAUGAGGAUCACCCAUGUAGUAGGACCGGAAACGGUGAGAGAAGGCCCAUGUACCU [JL SSNG1 3.73] (Eterna round: R96, puzzle: Same State NG 2)	26.6	40.5	51.5	–	–	–
UGGUACAUGGGAGGAUAUCUCAUGGAGACAUGAGGAUCACCCAUGUAGUUGGACCGGAAACGGUGAGAGAAGGCCCAUGUACCU [JL SSNG1 3.72] (Eterna round: R96, puzzle: Same State NG 2)	30.2	52.8	59.6	–	–	–
UGUUAACAUGAGGAUCACCCAUGUCAAAUGAAGCGAGGAUAUGGAAAGUAAUAAGAUGAACUAGAAGGUGUAGAUG [Altered State 1-21 - Jieux - Same State 1] (puzzle: Same State 1)	–	–	–	40.5	48.4	52.8
UGUUGUAUUACAGGAUAUCUAUUGAUUUUAUUUAGAGAAGGGUAUUCACAUGAGGAUCACCCAUGUAUAUACGAGGAAGUUGUG [JMF's solution 71] (Eterna round: R96, puzzle: Same State NG 1)	–	41.5	–	–	–	–
UGUUGUAUUACAGGAUAUCUAUUGUUGUUAUUUAGAGAAGGGUAUUCACAUGAGGAUCACCCAUGUAUAUACGAGGAAGUUGUG [JMF's solution 75] (Eterna round: R96, puzzle: Same State NG 1)	–	41.9	–	–	–	–
UGUUUGUUGUGAGGAUAUACGUACACCUUACAUGAGGAUCACCCAUGUUGUUUCUUUGAUUGUUGGUAGAAGGCACUUGGUUAU [JR_SSNG2_Sub048] (Eterna round: R96, puzzle: Same State NG 2)	324	123	208	–	–	–
UUAACAUGAGGAUCACCCAUGUAUACGUAGUUUGCAUUUUGACAGGAUAUUGUUUAUCUAUAUAGCAAGAAGGGUCGUUAGUCU [JR_SSNG3_Sub009] (Eterna round: R96, puzzle: Same State NG 3)	27	31.8	41.9	–	–	–
UUAAUAAUGAUAGGAUAUACAUGAGGAAUUCUCGUAGAAGGAUCAUGACAUGAGGAUCACCCAUGUAACGCUCGGAAGAGCGUA [Mat - Same State NG 1 - JL mod - D38] (Eterna round: R96, puzzle: Same State NG 1)	846	236	909	–	–	–
UUAAUCUGAACAUGAGGAUCACCCAUGUAUCUUACCUUAGGACAGGAUAUAGAUGUUAAGAAUUACUAGAAGGGUCAGUAUAUU [JR_SSNG3_Sub012] (Eterna round: R96, puzzle: Same State NG 3)	–	33.1	–	–	–	–
UUAAUUAAUUAAUUAUACAUGAGGAUCACCCAUGUAAGUGAUCAGGAUAUCAGCUCGAAUAGAGCUGAGAAGGGAUACAUGAAU [SSNG3/12-A1] (Eterna round: R96, puzzle: Same State NG 3)	–	101	–	–	–	–
UUAAUUAUGUAAGGAUAUACAUGAGGAUUUCUCGUAGAAGGUACAUUACAUGAGGAUCACCCAUGUGGGUGUCCGUAGACGCCA [JL SSNG1 1.06] (Eterna round: R96, puzzle: Same State NG 1)	–	475	–	–	–	–
UUAAUUUACUGAGGAUAUCGUGUCGUCUGAUUUGACAUGAGGAUCACCCAUGUGUGAAGUGGUAUCGAGAAGGCAGUUUUCUUA [JR_SSNG2_Sub027] (Eterna round: R96, puzzle: Same State NG 2)	24.2	42.6	75.5	–	–	–
UUAGAAUUGCAAGGAUAUCUAAUUUAGAUAGUAAGAGAAGGUGCUUGAUAGUUACAUGAGGAUCACCCAUGUUUUUGGGUUUAU [JR_SSNG1_Sub058] (Eterna round: R96, puzzle: Same State NG 1)	–	416	–	–	–	–
UUAGCGACGGAAGGAUAUUGGACGCUAACAUGAGGAUCACCCAUGUAGAGGUCCUACCAACAGCGCAAGAAGGUCCGAUCAGCA [Eternabot solution 13] (Eterna round: R96, puzzle: Same State NG 2)	22.7	8.94	13.3	–	–	–
UUAUACUCGAGAGGAUAUGCAGAGGAUCACCCUGCAGAAGGCUCGUUAGAGAGGAUAUGCAGAGGAUCACCCUGCAGAAGGCUC [pwkr ssNG DX.24] (Eterna round: R96, puzzle: Same State NG 1)	45.7	16.1	37.4	–	–	–
UUAUCUCAGACAUGAGGAUCACCCAUGUGGUUUUGACUUAGACAGGAUAUAGUAGUAUCGAAAUACUAGAAGGGUCAUUUUAUU [JR_SSNG3_Sub022] (Eterna round: R96, puzzle: Same State NG 3)	91.3	99.5	125	–	–	–
UUAUCUCUUACAUGAGGAUCACCCAUGUUUUUAUGUCUUAGACAGGAUAUAGUAGUCUCGUAUUACUAGAAGGGUCUUUUUAUU [JR_SSNG3_Sub020] (Eterna round: R96, puzzle: Same State NG 3)	18.7	22.4	26.4	–	–	–
UUAUUAUUUACAUGAGGAUCACCCAUGUUUUUAUGUCAGAGACAGGAUAUAGAAGUCUCGUUUUACUAGAAGGGUCUUUUUAUU [JR_SSNG3_Sub016] (Eterna round: R96, puzzle: Same State NG 3)	22	17.1	22	–	–	–
UUCUCAUUUACAUGAGGAUCACCCAUGUUUUUUUGUCAGAGAUAGGAUAUAGUUCUCUCGUUUUUCUAGAAGGAUCUUUUUAUU [JR_SSNG3_Sub087] (Eterna round: R96, puzzle: Same State NG 3)	79.7	53.2	71.7	–	–	–
UUCUCAUUUACAUGAGGAUCACCCAUGUUUUUUUGUCGGAAAUAGGAUAUAGGUCUCUCGUUUUACUAGAAGGAUUUCCUUAUU [JR_SSNG3_Sub089] (Eterna round: R96, puzzle: Same State NG 3)	70.4	70.7	58.9	–	–	–
